# From patent publication US20250215092A1 (ZHEJIANG NANOMAB TECHNOLOGY CENTER, published 2025)
# Biological target: T1, human EGFR.His antigen (Acro, Cat #EGR-H522a) (human, UniProt P00533 25-645)
# T1 construct: extracellular domain; Bought protein; also called EGFR his tag protein; full-length EGFR extracellular domain protein; not shown: His tag
# Assay: SPR, human EGFR.His
Binder,Kd,koff,kon
"E005.1 (VHH, Humanized VHH; also called humanized variant of E005) VHH: QVQLVESGGGLVKPGGSLRLSCAASGFAFSDYTMRWHRQAAGKELELVSYITSAGDIIKYANSVRGRFTISRDNAKNTLYLQMNSLRAEDTAVYRCNALVSASVRASDYWGQGTLVTVSS",3.3 nM,3.5e-05 s⁻¹,11000 M⁻¹ s⁻¹
"E005.4 (VHH, Humanized VHH; also called humanized variant of E005) VHH: QVQLVESGGGLVKPGGSLRLSCAASGFAFSDYTMRWHRQAPGKELELVSYITSAGDIIKYANSVRGRFTISRDNAKNSLYLQMNSLRAEDTAVYRCNALVSASVRASDYWGQGTLVTVSS",4.8 nM,9.6e-06 s⁻¹,2000 M⁻¹ s⁻¹
"E005.7 (VHH, Humanized VHH; also called humanized variant of E005) VHH: QVQLVESGGGLVKPGGSLRLSCAASGFAFSDYTMRWHRQAPGKELELVAYITSAGDIIKYANSVRGRFTISRDNAKNSLYLQMNSLRAEDTAVYRCNALVSASVRASDYWGQGTLVTVSS",0.71 nM,2.5e-06 s⁻¹,3500 M⁻¹ s⁻¹
"E005.3 (VHH, Humanized VHH; also called humanized variant of E005) VHH: QVQLVESGGGLVKPGGSLRLSCAASGFAFSDYTMRWHRQAAGKELELVAYITSAGDIIKYANSVRGRFTISRDNAKNTLYLQMNSLRAEDTAVYRCNALVSASVRASDYWGQGTLVTVSS",2.7 nM,1.7e-05 s⁻¹,6100 M⁻¹ s⁻¹
"E005.5 (VHH, Humanized VHH; also called humanized variant of E005) VHH: QVQLVESGGGLVKPGGSLRLSCAASGFAFSDYTMRWHRQAPGKELELVAYITSAGDIIKYANSVRGRFTISRDNAKNTLYLQMNSLRAEDTAVYRCNALVSASVRASDYWGQGTLVTVSS",0.74 nM,1.1e-05 s⁻¹,15000 M⁻¹ s⁻¹
"E005.8 (VHH, Humanized VHH; also called humanized variant of E005) VHH: QVQLVESGGGLVKPGGSLRLSCEASGFAFSDYTMRWHRQAAGKELELVAYITSAGDIIKYANSVRGRFTISRDNAKNTLYLQMNSLRAEDTAVYRCNALVSASVRASDYWGQGTLVTVSS",2.1 nM,2.7e-05 s⁻¹,13000 M⁻¹ s⁻¹
"E005.6 (VHH, Humanized VHH; also called humanized variant of E005) VHH: QVQLVESGGGLVKPGGSLRLSCAASGFAFSDYTMRWHRQAAGKELELVAYISSAGDIIKYANSVRGRFTISRDNAKNTLYLQMNSLRAEDTAVYRCNALVSASVRASDYWGQGTLVTVSS",2.5 nM,4.1e-05 s⁻¹,16000 M⁻¹ s⁻¹
"E005.2 (VHH, Humanized VHH; also called humanized variant of E005) VHH: QVQLVESGGGLVKPGGSLRLSCAASGFAFSDYTMRWHRQAAGKELELVAYITSAGDIIKYANSVRGRFTISRDNAKNSLYLQMNSLRAEDTAVYRCNALVSASVRASDYWGQGTLVTVSS",1.2 nM,2.1e-05 s⁻¹,18000 M⁻¹ s⁻¹
"E002.1 (VHH, Humanized VHH; also called humanized variant of E002) VHH: EVQLVESGGGLVQPGGSLRLSCAASGFTFSDYAVSWYRQAPGKEREFVSRITGTGETSRYEDSVKGRFTISRDNSKNTAYLQMNSLRAEDTAVYYCSIYHPPRDYWGQGTQVTVSS",5 nM,0.00039 s⁻¹,78000 M⁻¹ s⁻¹
"E002.7 (VHH, Humanized VHH; also called humanized variant of E002) VHH: EVQLVESGGGLVQPGGSLRLSCAASGFTFSDYAVSWYRQAPGKEREFVARITGTGETSRYEDSVKGRFAISRDNVKNTAYLQMNSLRAEDTAVYYCSIYHPPRDYWGQGTQVTVSS",11 nM,0.00046 s⁻¹,40000 M⁻¹ s⁻¹
"E002.6 (VHH, Humanized VHH; also called humanized variant of E002) VHH: EVQLVESGGGLVQPGGSLRLSCAASGFTFSDYAVSWYRQAPGKEREFVARITGTGETSRYEDSVKGRFAISRDNSKNTAYLQMNSLRAEDTAVYYCSIYHPPRDYWGQGTQVTVSS",9.4 nM,0.00038 s⁻¹,40000 M⁻¹ s⁻¹
"E002.2 (VHH, Humanized VHH; also called humanized variant of E002) VHH: EVQLVESGGGLVQPGGSLRLSCAASGFTFSDYAVSWYRQAPGKEREFVSRITGTGETSRYEDSVKGRFTISRDNVKNTAYLQMNSLRAEDTAVYYCSIYHPPRDYWGQGTQVTVSS",5.1 nM,0.00068 s⁻¹,130000 M⁻¹ s⁻¹
"E002.5 (VHH, Humanized VHH; also called humanized variant of E002) VHH: EVQLVESGGGLVQPGGSLRLSCAASGFTFSDYAVSWYRQAPGKEREFVARITGTGETSRYEDSVKGRFTISRDNVKNTAYLQMNSLRAEDTAVYYCSIYHPPRDYWGQGTQVTVSS",13 nM,0.00055 s⁻¹,43000 M⁻¹ s⁻¹
"E002.4 (VHH, Humanized VHH; also called humanized variant of E002) VHH: EVQLVESGGGLVQPGGSLRLSCAASGFTFSDYAVSWYRQAPGKEREFVARITGTGETSRYEDSVKGRFTISRDNSKNTAYLQMNSLRAEDTAVYYCSIYHPPRDYWGQGTQVTVSS",11 nM,0.00045 s⁻¹,43000 M⁻¹ s⁻¹
"E006.1 (VHH, Humanized VHH; also called humanized variant of E006) VHH: EVQLVESGGGLVQPGGSLRLSCAASGFTFDTYTTSWERQAPGKEREMVAVLATTGGKPYYVESVKGRFTISRDNSKNTVYLQMNSLRAEDTAVYYCKATSRSPVNPHNYSGQGTLVTVSS",39 nM,0.00079 s⁻¹,20000 M⁻¹ s⁻¹
"E006.5 (VHH, Humanized VHH; also called humanized variant of E006) VHH: EVQLVESGGGLVQPGGSLRLSCAASGFTFDTYTTSWERQAPGKEREMVAVLATTGGKPYYVESVKGRFTISRDASENAVYLQMNNLRAEDTAVYYCKATSRSPVNPHNYSGQGTLVTVSS",13 nM,0.00031 s⁻¹,24000 M⁻¹ s⁻¹
"E006.4 (VHH, Humanized VHH; also called humanized variant of E006) VHH: EVQLVESGGGLVQPGGSLRLSCAASGFTFDTYTTSWERQAPGKEREMVAVLATTGGKPYYVESVKGRFTISRDASENAVYLQMNSLRAEDTAVYYCKATSRSPVNPHNYSGQGTLVTVSS",13 nM,0.00032 s⁻¹,25000 M⁻¹ s⁻¹
"E006.2 (VHH, Humanized VHH; also called humanized variant of E006) VHH: EVQLVESGGGLVQPGGSLRLSCAASGFTFDTYTTSWERQAPGKEREMVAVLATTGGKPYYVESVKGRFTISRDASKNTVYLQMNSLRAEDTAVYYCKATSRSPVNPHNYSGQGTLVTVSS",41 nM,0.00072 s⁻¹,17000 M⁻¹ s⁻¹
"E006.6 (VHH, Humanized VHH; also called humanized variant of E006) VHH: EVQLVESGGGLVQPGGSLRLSCAASGFTFDTYTTSWERQAPGKEREMVAVLATTGGKPYYVESVKGRFTISRDASENAVTLQMNNLRAEDTAVYYCKATSRSPVNPHNYSGQGTLVTVSS",11 nM,0.00032 s⁻¹,29000 M⁻¹ s⁻¹
"E006.3 (VHH, Humanized VHH; also called humanized variant of E006) VHH: EVQLVESGGGLVQPGGSLRLSCAASGFTFDTYTTSWERQAPGKEREMVAVLATTGGKPYYVESVKGRFTISRDASENTVYLQMNSLRAEDTAVYYCKATSRSPVNPHNYSGQGTLVTVSS",18 nM,0.0004 s⁻¹,22000 M⁻¹ s⁻¹

# The next lines start with the values.
Kd,koff,kon,Binder
18 nM,0.0087 s⁻¹,480000 M⁻¹ s⁻¹,"E008.1 (VHH, Humanized VHH; also called humanized variant of E008) VHH: EVQLVESGGGLVQPGGSLRLSCAASGLPLLDYAIGWFRQAPGKEREAVSAISISEGSTYYTDSVRGRFTISRDNSKNTVYLQMNSLRAEDTAVYYCAADKTDIGFWLLVGGAGGGEVRYEYWGQGTQVTVSS"
5.8 nM,0.028 s⁻¹,4.9e+06 M⁻¹ s⁻¹,"E008.3 (VHH, Humanized VHH; also called humanized variant of E008) VHH: EVQLVESGGGLVQPGGSLRLSCAASGLPLLDYAIGWFRQAPGKEREAVSAISISEGSTYYTDSVRGRFTISRDNSKNTVYLRMNSLRAEDTAVYYCAADKTDIGFWLLVGGAGGGEVRYEYWGQGTQVTVSS"
25 nM,0.012 s⁻¹,490000 M⁻¹ s⁻¹,"E008.9 (VHH, Humanized VHH; also called humanized variant of E008) VHH: EVQLVESGGGLVQPGGSLRLSCAASGLPLLDYAIGWFRQAPGKELEAVSAISISEGSTYYTDSVRGRFTISRDNNKNKVYLQMNSLRAEDTAVYYCAADKTDIGFWLLVGGAGGGEVRYEYWGQGTQVTVSS"
82 nM,0.029 s⁻¹,360000 M⁻¹ s⁻¹,"E008.10 (VHH, Humanized VHH; also called humanized variant of E008) VHH: EVQLVESGGGLVQPGGSLRLSCASSGLPLLDYAIGWFRQAPGKEREAVSAISISEGSTYYTDSVRGRFTISRDNSKNKVYLRMNSLRAEDTAVYYCAADKTDIGFWLLVGGAGGGEVRYEYWGQGTQVTVSS"
32 nM,0.013 s⁻¹,430000 M⁻¹ s⁻¹,"E008.6 (VHH, Humanized VHH; also called humanized variant of E008) VHH: EVQLVESGGGLVQPGGSLRLSCAASGLPLLDYAIGWFRQAPGKEREAVSAISISEGSTYYTDSVRGRFTISRDNNKNKVYLQMNSLRAEDTAVYYCAADKTDIGFWLLVGGAGGGEVRYEYWGQGTQVTVSS"
40 nM,0.021 s⁻¹,540000 M⁻¹ s⁻¹,"E008.2 (VHH, Humanized VHH; also called humanized variant of E008) VHH: EVQLVESGGGLVQPGGSLRLSCAASGLPLLDYAIGWFRQAPGKEREAVSAISISEGSTYYTDSVRGRFTISRDNSKNKLYLQMNSLRAEDTAVYYCAADKTDIGFWLLVGGAGGGEVRYEYWGQGTQVTVSS"
21 nM,0.0093 s⁻¹,450000 M⁻¹ s⁻¹,"E008.4 (VHH, Humanized VHH; also called humanized variant of E008) VHH: EVQLVESGGGLVQPGGSLRLSCAASGLPLLDYAIGWFRQAPGKEREAVSAISISEGSTYYTDSVRGRFTISRDNNKNTVYLQMNSLRAEDTAVYYCAADKTDIGFWLLVGGAGGGEVRYEYWGQGTQVTVSS"
24 nM,0.012 s⁻¹,510000 M⁻¹ s⁻¹,"E008.5 (VHH, Humanized VHH; also called humanized variant of E008) VHH: EVQLVESGGGLVQPGGSLRLSCAASGLPLLDYAIGWFRQAPGKEREAVSAISISEGSTYYTDSVRGRFTISRDNSKNKVYLQMNSLRAEDTAVYYCAADKTDIGFWLLVGGAGGGEVRYEYWGQGTQVTVSS"
14 nM,0.00033 s⁻¹,24000 M⁻¹ s⁻¹,"E006.7 (VHH, Humanized VHH; also called humanized variant of E006) VHH: EVQLVESGGGLVQPGGSLRLSCAASGFTFDTYTTSWERQAPGKEREMVSVLATTGGKPYYVESVKGRFTISRDASENAVYLQMNSLRAEDTAVYYCKATSRSPVNPHNYSGQGTLVTVSS"
